Laboratory results as given in patent US20100227805A1 (RAPPAPORT FAMILY INSTITUTE FOR RESEARCH IN THE MEDICAL …, published 2010).

What was measured:
murine MIP-1α (CCL3) = molecular target: T1, murine MIP-1α (CCL3) (murine, UniProt P10855 24-92); assay: direct ELISA, chemokine coated at 10 ng/well, fusion at 10-1000 ng/ml
T1 construct: Bought recombinant chemokine; also called mCCL3; murine CCL3
T1 sequence (looked up): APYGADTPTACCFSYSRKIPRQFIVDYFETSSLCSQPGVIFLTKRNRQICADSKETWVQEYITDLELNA
Method: (§1) The binding specificity of the different extracellular domains (EC1, EC2, EC3 and N) of the murine CCR5-IgG fusion proteins to various commercially available murine recombinant […] chemokines (R&D Systems, Minneapolis, N. Mex. including MIP-1α (CCL3), (CCL4) and RANTES (CCL5) was determined by direct ELISA as follows: 96-well ELISA plates (Nunc, Roskilde, Denmark) were coated with 10 ng/well of murine CCL3, CCL4 or […] and blocked with 1% BSA in PBS. Wells were washed and incubated with 10 ng/ml, 100 ng/ml or 1000 ng/ml CCR5-IgG (EC1, EC2, EC3, N) at a concentration overnight. Wells were washed and the presence of CCR5-IgG was detected with goat anti mouse IgG-HRP (Jackson ImmunoResearch lot no. 58734). Results are shown as O.D. reading at 450 nm.

murine MIP-1β (CCL4) = molecular target: T2, murine MIP-1β (CCL4) (murine, UniProt P14097 24-92); assay: as above
T2 construct: Bought recombinant chemokine; also called mCCL4; murine CCL4
T2 sequence (looked up): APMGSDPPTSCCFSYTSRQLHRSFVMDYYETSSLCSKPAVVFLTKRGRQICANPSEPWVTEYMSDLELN
Method: as §1

murine RANTES (CCL5) = molecular target: T3, murine RANTES (CCL5) (murine, UniProt P30882 24-91); assay: as above
T3 construct: Bought recombinant chemokine; also called mCCL5; murine CCL5
T3 sequence (P30882 24-91 limits assumed): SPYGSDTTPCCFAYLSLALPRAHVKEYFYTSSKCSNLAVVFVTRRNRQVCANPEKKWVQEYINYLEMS
Method: as §1

human MIP-1β (CCL4) = molecular target: T4, human MIP-1β (CCL4) (human, UniProt P13236 24-92); assay: direct ELISA, chemokine coated at 10 ng/well, fusion at 1 µg/well
T4 construct: Bought recombinant chemokine; also called human CCL4
T4 sequence (looked up): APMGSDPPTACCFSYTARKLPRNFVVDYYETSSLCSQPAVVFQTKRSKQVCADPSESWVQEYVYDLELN
Method: (§2) The binding specificity of the murine CCR5-IgG soluble receptor to various commercially available human recombinant chemokines (R&D Systems, Minneapolis, N. Mex.) MIP-1α (CCL3), MIP-1β (CCL4) and RANTES as well as the murine recombinant chemokines (R&D Systems, Minneapolis, N. Mex.) MIP-1α (CCL3) and ITAC was determined by direct ELISA as follows: 96-well ELISA plates (Nunc, Roskilde, Denmark) were coated with 10 ng/well of human CCL3, CCL4, CCL5, as well as murine CCL3 or ITAC, and blocked with 1% BSA in PBS. Wells were washed and incubated with 1 μg/well CCR5(EC2)-IgG overnight. Wells were washed and the presence of CCR5(EC2)-IgG was detected with goat anti mouse IgG-HRP antibody (Jackson ImmunoResearch lot no. 58734). Results are shown as O.D. reading at 450 nm.

human RANTES (CCL5) = molecular target: T5, human RANTES (CCL5) (human, UniProt P13501 24-91); assay: as above
T5 construct: Bought recombinant chemokine; also called human CCL5
T5 sequence (looked up): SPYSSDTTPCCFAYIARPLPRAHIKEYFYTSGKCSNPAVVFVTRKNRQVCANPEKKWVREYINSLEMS
Method: as §2

Measured: binding result

B1: mCCR5(EC2)-IgG (Fc fusion)
chain: DAAQPARRARRTKLRSQKEGFHYTCSPHFPHTQYHFWKSFQTLKLEVPRDCGCKPCICTVPEVSSVFIFPPKPKDVLTITLTPKVTCVVVDISKDDPEVQFSWFVDDVEVHTAQTQPREEQFNSTFRSVSELPIMHQDCLNGKEFKCRVNSAAFPAPIEKTISKTKGRPKAPQVYTIPPPKEQMAKDKVSLTCMITDFFPEDITVEWQWNGQPAENYKNTQPIMDTDGSYFVYSKLNVQKSNWEAGNTFTCSVLHEGLHNHHTEKSLSHSPGKGPEQKLISEEDLNSAVDHHHHHH
notes: It may include the vector's Ig-kappa leader and tags; also called murine CCR5(EC2)-IgG; CCR5-Ig(E2)
binds: all assays above
